We go through 2 variants from publication PMC7496328.

The labels stand for the following.
B1: unnamed (parent)
chain: MFGLGHNSKEISMSHIGTKFILAEKFTFDPLSNTLIDKEDSEEIIRLGSNESRILWLLAQRPNEVISRNDLHDFVWREQGFEVDDSSLTQAISTLRKMLKDSTKSPQYVKTVPKRGYQLIARVETVEEEMARESEAAHDISQPESVNEYAESSSVPSSATVVNTPQPANVVTNKSAPNLGNRLLILIAVLLPLAVLLLTNPSQTSFKPLTVVDGVAVNMPNNHPDLSNWLPSIELCVKKYNEKHTGGLKPIEVIATGGQNNQLTLNYIHSPEVSGENITLRIVANPNDAIKVCE

This test covers variants of B1. Particulars: with partner chain of the complex shown; read off a plot.
In the case of MFGLGHNSKEISMSHIGTKFILAEKFTFDPLSNTLIDKEDSEEIIRLGSNESRILWLLAQRPNEVISRNDLHDFVWREQGFEVDDSSLTQAISTLRKMLKDSTKSPQYVKTVPKRGYQLIARVETVEEEMARESEAAHDISQPESVNEYAESSSVPSSATVVNTPQPANVVTNKSAPNLGNRLLILIAVLLPLAVLLLTNPSQTSFKPLTVVDGVAVNMPNNHPDLSNWLPSIELCVKKYNEKHTGGLKPIEVIATGGQNNQLTLNYIHSPEVSGENITLRIVANPNDAIKVSE [chain 1 C293S], the response amounted to 45%.
Regarding MFGLGHNSKEISMSHIGTKFILAEKFTFDPLSNTLIDKEDSEEIIRLGSNESRILWLLAQRPNEVISRNDLHDFVRREQGFEVDDSSLTQAISTLRKMLKDSTKSPQYVKTVPKRGYQLIARVETVEEEMARESEAAHDISQPESVNEYAESSSVPSSATVVNTPQPANVVTNKSAPNLGNRLLILIAVLLPLAVLLLTNPSQTSFKPLTVVDGVAVNMPNNHPDLSNWLPSIELCVKKYNEKHTGGLKPIEVIATGGQNNQLTLNYIHSPEVSGENITLRIVANPNDAIKVSE [chain 1 C293S W76R], the response turned out to be 5%.
